{"source": "paper PMC8713982", "about": "“Structure and RNA template requirements of Arabidopsis RNA-DEPENDENT RNA POLYMERASE 2”", "biological_target": "T1, TF-RDR2-RRM (Arabidopsis thaliana, UniProt O82504 1-100)", "T1 sequence": "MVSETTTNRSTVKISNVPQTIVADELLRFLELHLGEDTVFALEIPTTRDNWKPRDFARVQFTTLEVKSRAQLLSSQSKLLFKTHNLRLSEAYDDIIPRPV", "assay": "EMSA; protein 1, 3, 9 uM; RNA 2 uM; 2 mM Mg2+; 25 mM Hepes-KOH pH 7.6, 50 mM NaCl, 2 mM MgCl2, RNase inhibitor, 30 min room temperature; 6% native PAGE", "settings": "protein: recombinant; tags: N-terminal trigger factor (TF) fusion, pCold-TF; label: 5' Alexa647; single strand"}
{"binder": "UCCGUCCGUCUGCUGUGGGUCUCCUUUCUCCUUCUUC (ssRNA)", "note": "[37-nt ssRNA]", "values": [{"measurement": "binding result", "result": "binds"}]}
